Measured values from article PMC4661009, “Synthesis of α,β-unsaturated esters via a chemo-enzymatic chain elongation approach by combining carboxylic acid reduction and Wittig reaction” (Beilstein Journal of Organic Chemistry, 2015).

Substrate: O=C(O)c1ccccc1
Assay: steady-state kinetics of carboxylic acid reduction
Assay type: biochemical, Mycolicibacterium neoaurum
Details: His-tagged CAR, holo form after PPTase/CoA treatment; ATP, NADPH, Mg2+ as cofactors; assay pH and temperature for Km not in main text

B1: Mycobacterium CAR (Mycolicibacterium neoaurum VKM Ac-1815D) (protein)
chain: MFAENLDDQQRLADLYATDPEFAAAAPDPAIADAVAAPEMRLPEIIRTVLTGYAERPALGSRAVQLVTDEATGRTRAELLGHFETITYGQLWDRVRAVTNAWSDTVRPGDRVAILGFGSVDFTVIDIALTQLGAVSVPLQTSATAAALAPIVAETEPALIASDVNHLDDAVTLALESGVATVVVFDQNPAVDDDREAIAAATARLDGQTLATLDEVIAAGAERPDVAIPAQEGDPLSLLIYTSGSTGAPKGAMYPQGKVADIWRPAINSHWDARQGHVPAIVLSFMPMSHVMGRGILYASLASGGVVNFAARADLSTLLEDLALTRPTQLNFVPRVWDMLFQDYQSRAAHGGSEADILADMRTNLLGGRYVSALTGSAPISPELKAWVERLLDLHLVEGYGSTEAGAVFVDGQISRPPVLEYKLVDVPELGYHSTDVPHPRGELLIRSEQLFPGYYKRPEVTASVFDEDGFYRTGDIVAELGPDQVAYIDRRNNVLKLSQGEFVTVSKLEAVFNTAPLVHQIYIYGNSARPYLLAVVVPTDPAATKAEIADALKAAARKADLQSYELPRDFLVETQEFTTENGLLTGIKKLAWPKLKERYGAELEQLYTDLADGQAGELQALRATGADAPVLETVGRAAVALLGAASSDIAPDVHFTDLGGDSLSALTFGNLLADIFDVEVPVSVIVSPTADLASIAAHIETQRSGSGLRPSFASVHGKDATVARAADLTLDKFIDAETLAAAGDLAGPATNVRTVLLTGATGFLGRYLALEWLERMNLVDGKVIALVRARSDAEARARLDATFDTGDPKLVAHYRELADKHLEVLAGDKGEHDLGLDRQTWQRLADTVDLIVDPAALVNHVLPYNELFGPNALGTAELIRVALTTRIKPFVYVSTIGVGAGIEPGRFVEDADIREISATRVLDDSYANGYGASKWAGEVLLREAHEQFGLPVSVFRCDMILADTSYAGQLNLPDMFTRMMLSLVATGIAPKSFNQLDAQGNRQRSHYDGLPVEFIAEAISTLGADVTDGFETYHVMNPHDDGLGLDEFVDWLVDAGHPIRRIDDYQAWFEQFGATLRTLPDRQRQASLLPLLHNYTTPGQPVNGAMAPTDVFRTAVQEAKIGPDKDIPHVSRDVIVKYVTDLQLLGLL
notes: full-length gene in pET30b(+) (NdeI/XhoI), His-tagged, E. coli BL21(DE3), tag kept; monomer, theoretical 125 kDa; holo form made with Nocardia PPTase (ABI83656.1) and CoA
Km: 1750 ± 160 µM
